Results as given in article PMC10397247.
One block for each binder: values may come before it.

Legend:
4H906-bH = target: T1, 4H906-bH; assay: two-hybrid library CCNG1;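 also: natural log of median RNA to DNA barcode read ratio; higher means stronger binding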
T1 chain: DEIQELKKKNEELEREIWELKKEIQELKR

4H3185-bN = target: T2, 4H3185-bN; assay: two-hybrid library CCNG1;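 also: natural log of median RNA to DNA barcode read ratio; higher means stronger binding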
T2 chain: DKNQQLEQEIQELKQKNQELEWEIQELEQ

4H570-bH = target: T3, 4H570-bH; assay: two-hybrid library CCNG1;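 also: natural log of median RNA to DNA barcode read ratio; higher means stronger binding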
T3 chain: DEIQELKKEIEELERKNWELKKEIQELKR

4H591-bH = target: T4, 4H591-bH; assay: two-hybrid library CCNG1;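 also: natural log of median RNA to DNA barcode read ratio; higher means stronger binding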
T4 chain: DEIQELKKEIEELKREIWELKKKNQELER

4H1899-bH = target: T5, 4H1899-bH; assay: two-hybrid library CCNG1;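 also: natural log of median RNA to DNA barcode read ratio; higher means stronger binding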
T5 chain: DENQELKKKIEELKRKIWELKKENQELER

4H1985-bH = target: T6, 4H1985-bH; assay: two-hybrid library CCNG1;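 also: natural log of median RNA to DNA barcode read ratio; higher means stronger binding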
T6 chain: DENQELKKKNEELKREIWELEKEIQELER

4H3628-bH = target: T7, 4H3628-bH; assay: two-hybrid library CCNG1
T7 chain: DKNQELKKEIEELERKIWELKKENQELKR

4H1449-bH = target: T8, 4H1449-bH; assay: two-hybrid library CCNG1
T8 chain: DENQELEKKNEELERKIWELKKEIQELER

4H1348-bH = target: T9, 4H1348-bH; assay: two-hybrid library CCNG1
T9 chain: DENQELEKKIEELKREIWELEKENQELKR

4H3817-bH = target: T10, 4H3817-bH; assay: two-hybrid library CCNG1
T10 chain: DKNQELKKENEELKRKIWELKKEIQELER

4H626-bH = target: T11, 4H626-bH; assay: two-hybrid library CCNG1
T11 chain: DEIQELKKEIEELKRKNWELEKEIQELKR

4H1544-bH = target: T12, 4H1544-bH; assay: two-hybrid library CCNG1
T12 chain: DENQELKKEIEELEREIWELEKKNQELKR

4H3974-bH = target: T13, 4H3974-bH; assay: two-hybrid library CCNG1
T13 chain: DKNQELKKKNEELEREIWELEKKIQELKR

4H3175-bH = target: T14, 4H3175-bH; assay: two-hybrid library CCNG1
T14 chain: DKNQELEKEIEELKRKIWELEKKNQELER

4H3277-bH = target: T15, 4H3277-bH; assay: two-hybrid library CCNG1
T15 chain: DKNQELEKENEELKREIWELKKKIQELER

4H3462-bH = target: T16, 4H3462-bH; assay: two-hybrid library CCNG1
T16 chain: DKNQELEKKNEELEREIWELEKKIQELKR

4H3613-bH = target: T17, 4H3613-bH; assay: two-hybrid library CCNG1
T17 chain: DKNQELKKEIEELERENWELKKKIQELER

4H3858-bH = target: T18, 4H3858-bH; assay: two-hybrid library CCNG1
T18 chain: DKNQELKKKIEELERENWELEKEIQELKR

4H3926-bH = target: T19, 4H3926-bH; assay: two-hybrid library CCNG1
T19 chain: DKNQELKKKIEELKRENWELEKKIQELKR

4H3298-bH = target: T20, 4H3298-bH; assay: two-hybrid library CCNG1
T20 chain: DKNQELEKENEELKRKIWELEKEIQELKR

4H1373-bH = target: T21, 4H1373-bH; assay: two-hybrid library CCNG1
T21 chain: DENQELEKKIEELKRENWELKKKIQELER

4H850-bH = target: T22, 4H850-bH; assay: two-hybrid library CCNG1
T22 chain: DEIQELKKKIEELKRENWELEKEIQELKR

4H1710-bH = target: T23, 4H1710-bH; assay: two-hybrid library CCNG1
T23 chain: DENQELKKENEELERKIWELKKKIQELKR

4H3497-bH = target: T24, 4H3497-bH; assay: two-hybrid library CCNG1
T24 chain: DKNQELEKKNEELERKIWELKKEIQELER

4H3162-bH = target: T25, 4H3162-bH; assay: two-hybrid library CCNG1
T25 chain: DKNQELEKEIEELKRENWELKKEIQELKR

4H949-bA = target: T26, 4H949-bA; assay: two-hybrid library CCNG1
T26 chain: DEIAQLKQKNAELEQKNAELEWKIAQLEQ

4H796-bA = target: T27, 4H796-bA; assay: two-hybrid library CCNG1
T27 chain: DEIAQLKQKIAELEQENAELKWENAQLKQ

4H3041-bA = target: T28, 4H3041-bA; assay: two-hybrid library CCNG1
T28 chain: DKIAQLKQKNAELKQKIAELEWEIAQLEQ

4H932-bA = target: T29, 4H932-bA; assay: two-hybrid library CCNG1
T29 chain: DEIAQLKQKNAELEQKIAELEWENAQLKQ

4H2585-bA = target: T30, 4H2585-bA; assay: two-hybrid library CCNG1
T30 chain: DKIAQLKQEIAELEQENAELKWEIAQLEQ

4H56-bA = target: T31, 4H56-bA; assay: two-hybrid library CCNG1
T31 chain: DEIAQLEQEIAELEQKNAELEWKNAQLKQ

4H264-bA = target: T32, 4H264-bA; assay: two-hybrid library CCNG1
T32 chain: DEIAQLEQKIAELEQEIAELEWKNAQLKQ

4H3381-bA = target: T33, 4H3381-bA; assay: two-hybrid library CCNG1
T33 chain: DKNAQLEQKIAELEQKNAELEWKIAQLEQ

4H3364-bA = target: T34, 4H3364-bA; assay: two-hybrid library CCNG1
T34 chain: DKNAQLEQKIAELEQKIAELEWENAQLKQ

4H349-bA = target: T35, 4H349-bA; assay: two-hybrid library CCNG1
T35 chain: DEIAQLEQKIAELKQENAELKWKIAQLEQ

4H2444-bA = target: T36, 4H2444-bA; assay: two-hybrid library CCNG1
T36 chain: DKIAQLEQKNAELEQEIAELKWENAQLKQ

4H2931-bA = target: T37, 4H2931-bA; assay: two-hybrid library CCNG1
T37 chain: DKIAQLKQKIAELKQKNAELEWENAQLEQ

4H2518-bA = target: T38, 4H2518-bA; assay: two-hybrid library CCNG1
T38 chain: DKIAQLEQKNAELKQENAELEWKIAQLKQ

4H2233-bA = target: T39, 4H2233-bA; assay: two-hybrid library CCNG1
T39 chain: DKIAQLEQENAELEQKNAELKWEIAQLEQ

4H2253-bA = target: T40, 4H2253-bA; assay: two-hybrid library CCNG1
T40 chain: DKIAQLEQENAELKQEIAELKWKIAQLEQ

4H2859-bA = target: T41, 4H2859-bA; assay: two-hybrid library CCNG1
T41 chain: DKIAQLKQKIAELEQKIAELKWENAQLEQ

4H730-bA = target: T42, 4H730-bA; assay: two-hybrid library CCNG1
T42 chain: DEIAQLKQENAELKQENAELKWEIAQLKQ

4H2760-bA = target: T43, 4H2760-bA; assay: two-hybrid library CCNG1
T43 chain: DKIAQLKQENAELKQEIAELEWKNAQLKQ

4H235-bA = target: T44, 4H235-bA; assay: two-hybrid library CCNG1
T44 chain: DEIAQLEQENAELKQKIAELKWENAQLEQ

4H3297-bA = target: T45, 4H3297-bA; assay: two-hybrid library CCNG1
T45 chain: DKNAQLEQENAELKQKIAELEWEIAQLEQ

4H3020-AA = target: T46, 4H3020-AA; assay: two-hybrid library CCmax; conditions: mean of both orientations
T46 chain: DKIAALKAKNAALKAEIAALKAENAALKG

4H_GCN4 = assay: two-hybrid library CCmax
Chain of 4H_GCN4 (chain, as listed by the source): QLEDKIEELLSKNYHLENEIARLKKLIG

4H355-AA = target: T47, 4H355-AA; assay: two-hybrid library CCmax; conditions: mean of both orientations
T47 chain: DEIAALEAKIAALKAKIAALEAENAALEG

4H3651-AA = target: T48, 4H3651-AA; assay: two-hybrid library CCmax; conditions: mean of both orientations
T48 chain: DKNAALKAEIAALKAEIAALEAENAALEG

4H895-AA = target: T49, 4H895-AA; assay: two-hybrid library CCmax; conditions: mean of both orientations
T49 chain: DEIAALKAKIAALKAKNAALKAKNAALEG

4H535-AA = target: T50, 4H535-AA; assay: two-hybrid library CCmax; conditions: mean of both orientations
T50 chain: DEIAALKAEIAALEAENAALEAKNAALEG

4H465-AA = target: T51, 4H465-AA; assay: two-hybrid library CCmax; conditions: mean of both orientations
T51 chain: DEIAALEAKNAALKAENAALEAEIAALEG

4H486-AA = target: T52, 4H486-AA; assay: two-hybrid library CCmax; conditions: mean of both orientations
T52 chain: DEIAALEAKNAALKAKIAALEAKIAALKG

GCN2_T = assay: two-hybrid library CCmax; conditions: mean of both orientations
4H_BCR = target: T53, 4H_BCR; assay: two-hybrid library CCmax; conditions: mean of both orientations
T53 chain: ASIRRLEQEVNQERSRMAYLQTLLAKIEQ

4H3705-AA = target: T54, 4H3705-AA; assay: two-hybrid library CCmax; conditions: mean of both orientations
T54 chain: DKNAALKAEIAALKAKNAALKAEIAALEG

4H3782-AA = target: T55, 4H3782-AA; assay: two-hybrid library CCmax; conditions: mean of both orientations
T55 chain: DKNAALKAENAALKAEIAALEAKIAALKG

4H2721-AA = target: T56, 4H2721-AA; assay: two-hybrid library CCmax; conditions: mean of both orientations
T56 chain: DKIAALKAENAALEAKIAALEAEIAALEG

4H3365-AA = target: T57, 4H3365-AA; assay: two-hybrid library CCmax; conditions: mean of both orientations
T57 chain: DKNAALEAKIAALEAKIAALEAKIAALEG

4H_APH = target: T58, 4H_APH; assay: two-hybrid library CCmax; conditions: mean of both orientations
T58 chain: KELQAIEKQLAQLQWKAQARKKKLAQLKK

4H2750-AA = target: T59, 4H2750-AA; assay: two-hybrid library CCmax; conditions: mean of both orientations
T59 chain: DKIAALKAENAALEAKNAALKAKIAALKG

4H2600-AA = target: T60, 4H2600-AA; assay: two-hybrid library CCmax; conditions: mean of both orientations
T60 chain: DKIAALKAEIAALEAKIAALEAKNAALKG

4H2898-AA = target: T61, 4H2898-AA; assay: two-hybrid library CCmax; conditions: mean of both orientations
T61 chain: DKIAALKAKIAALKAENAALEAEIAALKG

4H1802-AA = target: T62, 4H1802-AA; assay: two-hybrid library CCmax; conditions: mean of both orientations
T62 chain: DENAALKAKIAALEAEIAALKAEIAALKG

4H140-AA = target: T63, 4H140-AA; assay: two-hybrid library CCmax
T63 chain: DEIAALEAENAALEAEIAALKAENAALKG

4H58-AA = target: T64, 4H58-AA; assay: two-hybrid library CCmax; conditions: mean of both orientations
T64 chain: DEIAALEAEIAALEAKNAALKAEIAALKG

interaction score (4H906-bH): -0.14 | interaction score (4H3185-bN): -1.2 | interaction score (4H570-bH): -0.807 | interaction score (4H591-bH): -1.39 | interaction score (4H1899-bH): 0.883 | interaction score (4H1985-bH): 0.722 | interaction score (4H3628-bH): 1.42 | interaction score (4H1449-bH): 1.19 | interaction score (4H1348-bH): 0.814 | interaction score (4H3817-bH): 0.205 | interaction score (4H626-bH): -1.01 | interaction score (4H1544-bH): 1.3 | interaction score (4H3974-bH): 1.36 | interaction score (4H3175-bH): 0.435 | interaction score (4H3277-bH): -0.13 | interaction score (4H3462-bH): 0.558 | interaction score (4H3613-bH): -1.69 | interaction score (4H3858-bH): 0.0862 | interaction score (4H3926-bH): 0.857 | interaction score (4H3298-bH): 0.0904 | interaction score (4H1373-bH): 0.103 | interaction score (4H850-bH): 0.659 | interaction score (4H1710-bH): -0.0273 | interaction score (4H3497-bH): 0.0523 | interaction score (4H3162-bH): 0.415
Binder: DENQELEKKIEELKREIWELEKENQELKR [4H1348-bH]

interaction score (4H949-bA): -1 | interaction score (4H796-bA): -1.42 | interaction score (4H3041-bA): 0.018 | interaction score (4H932-bA): -1.01 | interaction score (4H2585-bA): -1.22 | interaction score (4H56-bA): -1.39 | interaction score (4H264-bA): -1.45 | interaction score (4H3381-bA): -0.976 | interaction score (4H3364-bA): -0.979 | interaction score (4H349-bA): -1.43 | interaction score (4H2444-bA): -1.1 | interaction score (4H2931-bA): -1.08 | interaction score (4H2518-bA): 2.31 | interaction score (4H2233-bA): -0.789 | interaction score (4H2253-bA): -1.28 | interaction score (4H2859-bA): -0.945 | interaction score (4H730-bA): -1.24 | interaction score (4H2760-bA): -0.641 | interaction score (4H235-bA): -1.01 | interaction score (4H3297-bA): -0.632
Binder: DKIAQLEQENAELEQKNAELKWEIAQLEQ [4H2233-bA]

interaction score (4H3020-AA): 2.23 | interaction score (4H_GCN4): -0.95 | interaction score (4H355-AA): -1.06 | interaction score (4H3651-AA): -1.02 | interaction score (4H895-AA): -1.44 | interaction score (4H535-AA): -1.56 | interaction score (4H465-AA): -1.51 | interaction score (4H486-AA): -0.379 | interaction score (GCN2_T): -1.08 | interaction score (4H_BCR): -1.18 | interaction score (4H3705-AA): 1.36 | interaction score (4H3782-AA): -0.5 | interaction score (4H2721-AA): -1.25 | interaction score (4H3365-AA): -1.08 | interaction score (4H_APH): -2.79 | interaction score (4H2750-AA): -0.883 | interaction score (4H2600-AA): -1.83 | interaction score (4H2898-AA): -0.325 | interaction score (4H1802-AA): -1.67 | interaction score (4H140-AA): 1.28 | interaction score (4H58-AA): 1.01
Binder: DEIAALEAENAALEAEIAALKAENAALKG [4H140-AA]
